Source: doi:10.1101/2020.12.02.408906 (bioRxiv, 2020)

B1: EccC5 ATPase of the ESX-5 type VII secretion system of M. tuberculosis H37Rv (natural protein)
chain: MKRGFARPTPEKPPVIKPENIVLSTPLSIPPPEGKPWWLIVVGVVVVGLLGGMVAMVFASGSHVFGGIGSIFPLFMMVGIMMMMFRGMGGGQQQMSRPKLDAMRAQFMLMLDMLRETAQESADSMDANYRWFHPAPNTLAAAVGSPRMWERKPDGKDLNFGVVRVGVGMTRPEVTWGEPQNMPTDIELEPVTGKALQEFGRYQSVVYNLPKMVSLLVEPWYALVGEREQVLGLMRAIICQLAFSHGPDHVQMIVVSSDLDQWDWVKWLPHFGDSRRHDAAGNARMVYTSVREFAAEQAELFAGRGSFTPRHASSSAQTPTPHTVIIADVDDPQWEYVISAEGVDGVTFFDLTGSSMWTDIPERKLQFDKTGVIEALPRDRDTWMVIDDKAWFFALTDQVSIAEAEEFAQKLAQWRLAEAYEEIGQRVAHIGARDILSYYGIDDPGNIDFDSLWASRTDTMGRSRLRAPFGNRSDNGELLFLDMKSLDEGGDGPHGVMSGTTGSGKSTLVRTVIESLMLSHPPEELQFVLADLKGGSAVKPFAGVPHVSRIITDLEEDQALMERFLDALWGEIARRKAICDSAGVDDAKEYNSVRARMRARGQDMAPLPMLVVVIDEFYEWFRIMPTAVDVLDSIGRQGRAYWIHLMMASQTIESRAEKLMENMGYRLVLKARTAGAAQAAGVPNAVNLPAQAGLGYFRKSLEDIIRFQAEFLWRDYFQPGVSIDGEEAPALVHSIDYIRPQLFTNSFTPLEVSVGGPDIEPVVAQPNGEVLESDDIEGGEDEDEEGVRTPKVGTVIIDQLRKIKFEPYRLWQPPLTQPVAIDDLVNRFLGRPWHKEYGSACNLVFPIGIIDRPYKHDQPPWTVDTSGPGANVLILGAGGSGKTTALQTLICSAALTHTPQQVQFYCLAYSSTALTTVSRIPHVGEVAGPTDPYGVRRTVAELLALVRERKRSFLECGIASMEMFRRRKFGGEAGPVPDDGFGDVYLVIDNYRALAEENEVLIEQVNVIINQGPSFGVHVVVTADRESELRPPVRSGFGSRIELRLAAVEDAKLVRSRFAKDVPVKPGRGMVAVNYVRLDSDPQAGLHTLVARPALGSTPDNVFECDSVVAAVSRLTSAQAPPVRRLPARFGVEQVRELASRDTRQGVGAGGIAWAISELDLAPVYLNFAENSHLMVTGRRECGRTTTLATIMSEIGRLYAPGASSAPPPAPGRPSAQVWLVDPRRQLLTALGSDYVERFAYNLDGVVAMMGELAAALAGREPPPGLSAEELLSRSWWSGPEIFLIVDDIQQLPPGFDSPLHKAVPFVNRAADVGLHVIVTRTFGGWSSAGSDPMLRALHQANAPLLVMDADPDEGFIRGKMKGGPLPRGRGLLMAEDTGVFVQVAATEVRR
B2: EccD5 of the ESX-5 type VII secretion system of M. tuberculosis H37Rv (natural protein)
chain: MTAVADAPQADIEGVASPQAVVVGVMAGEGVQIGVLLDANAPVSVMTDPLLKVVNSRLRELGEAPLEATGRGRWALCLVDGAPLRATQSLTEQDVYDGDRLWIRFIADTERRSQVIEHISTAVASDLSKRFARIDPIVAVQVGASMVATGVVLATGVLGWWRWHHNTWLTTIYTAVIGVLVLAVAMLLLMRAKTDADRRVADIMLMSAIMPVTVAAAAAPPGPVGSPQAVLGFGVLTVAAALALRFTGRRLGIYTTIVIIGALTMLAALARMVAATSAVTLLSSLLLICVVAYHAAPALSRRLAGIRLPVFPSATSRWVFEARPDLPTTVVVSGGSAPVLEGPSSVRDVLLQAERARSFLSGLLTGLGVMVVVCMTSLCDPHTGQRWLPLILAGFTSGFLLLRGRSYVDRWQSITLAGTAVIIAAAVCVRYALELSSPLAVSIVAAILVLLPAAGMAAAAHVPHTIYSPLFRKFVEWIEYLCLMPIFPLALWLMNVYAAIRYR
B3: EccB5 of the ESX-5 type VII secretion system of M. tuberculosis H37Rv (natural protein)
chain: MAEESRGQRGSGYGLGLSTRTQVTGYQFLARRTAMALTRWRVRMEIEPGRRQTLAVVASVSAALVICLGALLWSFISPSGQLNESPIIADRDSGALYVRVGDRLYPALNLASARLITGRPDNPHLVRSSQIATMPRGPLVGIPGAPSSFSPKSPPASSWLVCDTVATSSSIGSLQGVTVTVIDGTPDLTGHRQILSGSDAVVLRYGGDAWVIREGRRSRIEPTNRAVLLPLGLTPEQVSQARPMSRALFDALPVGPELLVPEVPNAGGPATFPGAPGPIGTVIVTPQISGPQQYSLVLGDGVQTLPPLVAQILQNAGSAGNTKPLTVEPSTLAKMPVVNRLDLSAYPDNPLEVVDIREHPSTCWWWERTAGENRARVRVVSGPTIPVAATEMNKVVSLVKADTSGRQADQVYFGPDHANFVAVTGNNPGAQTSESLWWVTDAGARFGVEDSKEARDALGLTLTPSLAPWVALRLLPQGPTLSRADALVEHDTLPMDMTPAELVVPK
B4: MycP5 protease (mycosin) of the ESX-5 type VII secretion system of M. tuberculosis H37Rv (enzyme)
chain: ISPPTIDPGALPPDGPPGPLAPMKQNAYCTEVGVLPGTDFQLQPKYMEMLNLNEAWQFGRGDGVKVAVIDTGVTPHPRLPRLIPGGDYVMAGGDGLSDCDAHGTLVASMIAAVPANGAVPLPSVPRRPVTIPTTETPPPPQTVTLSPVPPQTVTVIPAPPPEEGVPPGAPVPGPEPPPAPGPQPPAVDRGGGTVTVPSYSGGRKIAPIDNPRNPHPSAPSPALGPPPDAFSGIAPGVEIISIRQSSQAFGLKDPYTGDEDPQTAQKIDNVETMARAIVHAANMGASVINISDVMCMSARNVIDQRALGAAVHYAAVDKDAVIVAAAGDGSKKDCKQNPIFDPLQPDDPRAWNAVTTVVTPSWFHDYVLTVGAVDANGQPLSKMSIAGPWVSISAPGTDVVGLSPRDDGLINAIDGPDNSLLVPAGTSFSAAIVSGVAALVRAKFPELSAYQIINRLIHTARPPARGVDNQVGYGVVDPVAALTWDVPKGPAEPPKQLSAPLVVPQPPAPRDMVPIWVAAGGLAGALLIGGAVFGTATLMRRSRKQQ

Target: the molecule itself
Experiment: cryo-EM structure

Row | Protein | stoichiometry N
1 | B1 | 2
2 | B2 | 2
3 | B3 | 6
4 | B4 | 3
